Measured values published in patent US20250188176A1.
Substitutions are numbered along the chain they refer to.

B1: AHF21170 (Fab, V domains shown, not shown: small tags and cut ends)
VH: EVQLVESGGDLVKPGGSLRLSCVASGFTFRDYAMTWVRQAPGKGLQWVSLINGSGGKTYYADAVKGRFTISRDNAKNTLYLQMNSLRAEDTAVYYCAVDRLTKTIRPQYYGLWVWGQGTLVTVSS
VL: DIVMTQTPLSLSVSPGETASISCRSSQSLTYSIGYNYLDWYLQKPGQSPQGLIYLGSKRASGVPDRFSGSGSGTDFTLRISRVEANDTGVYYCMQGLQSPLTFGQGTKLEIKR
B2: AHF21178 (Fab, V domains shown, not shown: small tags and cut ends)
VH: B1 VH
VL: B1 VL with T102S
B3: AHF21191 (Fab, V domains shown, not shown: small tags and cut ends)
VH: B1 VH with V114H
VL: B1 VL with T102G
B4: AHF21180 (Fab, V domains shown, not shown: small tags and cut ends)
VH: B1 VH with L101K, V114H
VL: B1 VL with G96P
B5: AHF21184 (Fab, V domains shown, not shown: small tags and cut ends)
VH: B1 VH with N52S, V114H
VL: B1 VL with T30L, T102S
B6: AHF21171 (Fab, V domains shown, not shown: small tags and cut ends)
VH: B1 VH with V114H
VL: B1 VL with T30L, S57H, T102S
B7: AHF21172 (Fab, V domains shown, not shown: small tags and cut ends)
VH: B1 VH
VL: B1 VL with T30L, S57H
B8: AHF21200 (Fab, V domains shown, not shown: small tags and cut ends)
VH: B1 VH with L101K
VL: B1 VL with G96P, T102S
B9: AHF21186 (Fab, V domains shown, not shown: small tags and cut ends)
VH: B1 VH with V114H
VL: B1 VL with T30L, S57H
B10: AHF21177 (Fab, V domains shown, not shown: small tags and cut ends)
VH: B1 VH
VL: B1 VL with T102G
B11: AHF21174 (Fab, V domains shown, not shown: small tags and cut ends)
VH: B1 VH
VL: B1 VL with S57H, T102S
B12: AHF21194 (Fab, V domains shown, not shown: small tags and cut ends)
VH: B1 VH
VL: B1 VL with T30L, T102S
B13: AHF21201 (Fab, V domains shown, not shown: small tags and cut ends)
VH: B1 VH with V114H
VL: B1 VL with T30L, S57H, T102G
B14: AHF21190 (Fab, V domains shown, not shown: small tags and cut ends)
VH: B1 VH
VL: B1 VL with T30L, S57H, T102S
B15: AHF21188 (Fab, V domains shown, not shown: small tags and cut ends)
VH: B1 VH with N52S, V114H
VL: B1 VL with T102G
B16: AHF21199 (Fab, V domains shown, not shown: small tags and cut ends)
VH: B1 VH
VL: B1 VL with S57H, T102G
B17: AHF21195 (Fab, V domains shown, not shown: small tags and cut ends)
VH: B1 VH with L101K
VL: B1 VL with T30L, T102S
B18: AHF21173 (Fab, V domains shown, not shown: small tags and cut ends)
VH: B1 VH with L101K
VL: B1 VL with S57H, T102S
B19: AHF21176 (Fab, V domains shown, not shown: small tags and cut ends)
VH: B1 VH with L101K, V114H
VL: B1 VL with S57H, T102G
B20: AHF21187 (Fab, V domains shown, not shown: small tags and cut ends)
VH: B1 VH with L101K
VL: B1 VL with S57H, T102G
B21: AHF21182 (Fab, V domains shown, not shown: small tags and cut ends)
VH: B1 VH with V114H
VL: B1 VL with S57H, T102L
B22: FJ2246MP06G06 (Parental Fab of TB640_005) (Fab, V domains shown)
VH: B1 VH with N52S
VL: B1 VL with T30L
B23: FJ2246MP05A04 (Fab, V domains shown)
VH: B1 VH with F27L, T28P, N52S
VL: B1 VL with T30L
B24: FJ2246MP05G01 (Fab, V domains shown)
VH: B1 VH with T28P, Y32F, N52S
VL: B1 VL with T30L
B25: FJ2246MP06F11 (Fab, V domains shown)
VH: B1 VH with S54D, G56S
VL: B1 VL with T30L

The binders below were run against canine IL-4RA (construct not given) (canine) (assay: SPR, combinatorial Fab-SASA clone).

Row | Kd [pM] | koff [s⁻¹] | kon [M⁻¹ s⁻¹] | Binder
1 | 940 | 0.000138 | 147000 | B1
2 | 466 | 8.27e-05 | 178000 | B2
3 | 366 | 9.48e-05 | 259000 | B3
4 | 259 | 5.68e-05 | 219000 | B4
5 | 1890 | 0.000543 | 287000 | B5
6 | 470 | 0.000134 | 285000 | B6
7 | 740 | 0.000168 | 226000 | B7
8 | 875 | 0.000127 | 146000 | B8
9 | 485 | 0.000148 | 306000 | B9
10 | 561 | 9.52e-05 | 170000 | B10
11 | 521 | 9.58e-05 | 184000 | B11
12 | 627 | 0.000133 | 212000 | B12
13 | 440 | 0.000151 | 344000 | B13
14 | 680 | 0.000152 | 223000 | B14
15 | 857 | 0.000278 | 325000 | B15
16 | 395 | 8.18e-05 | 207000 | B16
17 | 992 | 0.000192 | 193000 | B17
18 | 606 | 9.69e-05 | 160000 | B18
19 | 309 | 9.11e-05 | 295000 | B19
20 | 769 | 0.000132 | 172000 | B20
21 | 442 | 0.000126 | 286000 | B21

Each binder was assayed against canine IL-4RA (construct not given) (canine) (assay: SPR, IL-4RA immobilised, periplasmic Fab).

Row | Improvement over parental [fold] | RU max [RU] | koff [s⁻¹] | Binder
22 | 1 | 105 | 0.00028 | B22
23 | 2 | 329 | 0.000142 | B23
24 | 2 | 344 | 0.000142 | B24
25 | 2 | 196 | 0.000143 | B25
